Data from patent publication US10921309 (dated 2021).

What was measured:
[1] = target: T1, OBn(GGS)2t-FhuA (barnase nanopore sensor) (Bacillus amyloliquefaciens / E. coli); assay: other, single-molecule nanopore, high Bs concentration
T1 chain: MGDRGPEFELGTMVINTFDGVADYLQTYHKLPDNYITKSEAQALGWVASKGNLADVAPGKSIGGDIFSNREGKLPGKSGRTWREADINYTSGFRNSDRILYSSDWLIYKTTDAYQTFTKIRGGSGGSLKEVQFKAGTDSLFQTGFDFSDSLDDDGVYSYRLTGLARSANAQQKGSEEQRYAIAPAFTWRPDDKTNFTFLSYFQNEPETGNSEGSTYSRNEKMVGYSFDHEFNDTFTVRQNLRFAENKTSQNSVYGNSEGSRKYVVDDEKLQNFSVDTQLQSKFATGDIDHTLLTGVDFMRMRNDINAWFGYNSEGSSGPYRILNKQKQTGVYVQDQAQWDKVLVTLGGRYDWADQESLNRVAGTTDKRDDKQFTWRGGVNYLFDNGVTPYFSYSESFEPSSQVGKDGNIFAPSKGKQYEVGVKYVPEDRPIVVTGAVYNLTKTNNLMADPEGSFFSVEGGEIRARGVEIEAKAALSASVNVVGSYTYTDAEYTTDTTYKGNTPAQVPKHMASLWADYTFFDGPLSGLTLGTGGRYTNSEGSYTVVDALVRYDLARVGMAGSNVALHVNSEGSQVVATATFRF

[2] = target: T1, OBn(GGS)2t-FhuA (barnase nanopore …); assay: other, single-molecule nanopore, 300 mM KCl, pH 8
[3] = target: T1, OBn(GGS)2t-FhuA (barnase nanopore …); assay: other, single-molecule nanopore

Kd [1]: 82 nM
Kd [2]: 64 nM
Kd [3]: 61 nM
B1: Barstar (Bs) (protein)
chain: MKKAVINGEQIRSISDLHQTLKKELALPEYYGENLDALWDALTGWVEYPLVLEWRQFEQSKQLTENGAESVLQVFREAKAEGADITIILS
